Test results: paper PMC4388618

Substrate: [H][C@@]12COP(=O)(O)O[C@@]1([H])[C@@H](O)[C@H](n1cnc3c(=O)[nH]c(N)nc31)O2
Experiment: cyclic nucleotide phosphodiesterase assay kit
Type: biochemical, Drosophila melanogaster

B1: Prune (Pn) (Drosophila melanogaster) (protein)
chain: MCFLRFLAQARGTLGRHLAEASPVAWAAAPDVSGRKLHLVMGNESCDLDSAVSAVTLAFVYAQRHREHDYVPILNIPRRDYPLKTEVGHLFVKCGIAEPVLLFRDDIPREVVQDVNVILVDHHVSPLAPNVTEILDHRPLEDSSPSFKQLPTLCQLDIDASVGSCATLVAQRYLAEDQPRSTSVAQLLHATIVLDTINFAPAAKRYGPKDEAMVQKLESELNRKDAQRSSLFDELVAARADISKLTLTEVLRKDMKVLQTDRQVVPLAGMPILVRDFVEKSGAEKAVREFGVESNLLVILGMYVSPADGQVQRDLALISLSGQGQFVQRVQQALMESNDPKLELRPHEVDTRFMGGCFLRQHNVQATRKHILPIVKRALLEWEADHACDCDEVYFFKEKPQLGLS
- Km: 17.97 ± 10.78 µM
- kcat: 0.00123 ± 0.00014 s⁻¹
